From the supplement of paper PMC7877785
± gives the uncertainty stated by the source.

Assay: self-splicing fitness, log relative to wild type (ln ratio); higher = more splicing; Tetrahymena group I intron in knt gene, E. coli kanamycin selection, DiMSum; sequences stand for … in CUCUCU…GGAGGGAAAAGUUAUCAGGCAUGCACCUGGUAGCUAGUCUUUAAACCAAUAGAUUGCAUCGGUUUAAAAGGCAAGACCGUCAAAUUGCGGGAAAGGGGUCAACAGCCGUUCAGUACCAAGUCUCAGGGGAAACUUUGAGAUGGCCUUGCAAAGGGUAUGGUAAUAAGCUGACGGACAUGGUCCUAACCACGCAGCCAAGUCCUAAGUCAACAGAUCUUCUGUUGAUAUGGAUGCAGUUCACAGACUAAAUGUCGGUCGGGGAAGAUGUAUUCUUCUCAUAAGAUAUAGUCGGACCUCUCCUUAAUGGGAGCUAGCGGAUGAAGUGAUGCAACACUGGAGCCGCUGGGAACUAAUUUGUAUGCGAAAGUAUAUUGAUUAGUUUUGGAGUACUCGUGGUCG
Summary of the method: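 Fitness was computed with DiMSum as the error-weighted combination of replicate fold changes, kanamycin versus none, each normalised to wild type. The library randomised all eight intron nucleotides of the P1ex region, with the intron placed in the knt kanamycin-resistance gene on pET-22b(+) in E. coli BL21(DE3). Six replicate transformations were grown overnight at 37°C or 30°C on LB agar with or without 25 μg/mL kanamycin, plus 100 μg/mL carbenicillin, 50 μM IPTG and 0.2% rhamnose. Pooled colonies were amplicon-sequenced on an Illumina HiSeq 2500.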

Sequence	self-splicing fitness (ln) (30 °C)	self-splicing fitness (ln) (37 °C)
CCAUAGCAAUAUUACGCGGG	-3.99 ± 0.21	-2.87 ± 0.24
CCAUAGCAAUAUUACGCUAU		-3.35 ± 0.37
CCAUAGCAAUAUUACGGAAC	-3.26 ± 0.24	-1.55 ± 0.27
CCAUAGCAAUAUUACGGACG	-1.47 ± 0.11	-1.21 ± 0.14
CCAUAGCAAUAUUACGGAUU	-3.49 ± 0.19	-2.96 ± 0.24
CCAUAGCAAUAUUACGGCCA	-3.07 ± 0.37	-3.3 ± 0.42
CCAUAGCAAUAUUACGGGCG	-1.02 ± 0.097	-0.644 ± 0.11
CCAUAGCAAUAUUACGUAAG	-0.421 ± 0.055	-0.575 ± 0.07
CCAUAGCAAUAUUACGUCAU	-4.08 ± 0.31	-2.69 ± 0.17
CCAUAGCAAUAUUACGUGAU	-2.78 ± 0.097	-2.76 ± 0.16
CCAUAGCAAUAUUACGUGUA	-4.27 ± 0.25	-2.71 ± 0.22
CCAUAGCAAUAUUACGUUAA	-3.44 ± 0.34	-3.04 ± 0.38
CCAUAGCAAUAUUACGUUUU	-3.58 ± 0.16	-2.75 ± 0.17
CCCAAGCAAUAUUACGAAAC	-2.72 ± 0.22	-2.04 ± 0.27
CCCAAGCAAUAUUACGACAU	-3.83 ± 0.021	-2.8 ± 0.037
CCCAAGCAAUAUUACGAGCG	-2.62 ± 0.12	-2 ± 0.13
CCCAAGCAAUAUUACGAUGC	-4.67 ± 0.29	-2.15 ± 0.24
CCCAAGCAAUAUUACGCAAC	-3.16 ± 0.26	-2.71 ± 0.38
CCCAAGCAAUAUUACGCAAG	-3.34 ± 0.19	-2.86 ± 0.22
CCCAAGCAAUAUUACGCACG	-2.65 ± 0.17	-2.84 ± 0.43
CCCAAGCAAUAUUACGCCCA	-2.33 ± 0.24	-2.46 ± 0.25
CCCAAGCAAUAUUACGCCGA	-2.01 ± 0.32	

Sequence	self-splicing fitness (ln) (30 °C)	self-splicing fitness (ln) (37 °C)
CCCAAGCAAUAUUACGGAAA	-2.22 ± 0.15	-3.47 ± 0.3
CCCAAGCAAUAUUACGGAGU	-3.37 ± 0.11	-2.47 ± 0.11
CCCAAGCAAUAUUACGGAUG	-3.07 ± 0.1	-2.49 ± 0.11
CCCAAGCAAUAUUACGGCAA	-2.32 ± 0.14	-2.69 ± 0.16
CCCAAGCAAUAUUACGGCGG	-3.72 ± 0.23	-2.08 ± 0.21
CCCAAGCAAUAUUACGGGAC	-4.01 ± 0.18	-2.67 ± 0.15
CCCAAGCAAUAUUACGGGAG	-3.79 ± 0.13	-2.29 ± 0.13
CCCAAGCAAUAUUACGGGCG	-3.29 ± 0.17	-1.79 ± 0.15
CCCAAGCAAUAUUACGGGGA	-2.82 ± 0.13	-1.62 ± 0.09
CCCAAGCAAUAUUACGGGGU	-3.46 ± 0.12	-2.35 ± 0.16
CCCAAGCAAUAUUACGGUAC	-4.14 ± 0.23	-2.71 ± 0.17
CCCAAGCAAUAUUACGGUUC	-3.38 ± 0.13	-2.6 ± 0.18
CCCAAGCAAUAUUACGUCAC	-3.87 ± 0.2	-2.82 ± 0.15
CCCAAGCAAUAUUACGUCCC	-3.35 ± 0.43	
CCCAAGCAAUAUUACGUCUG	-3.87 ± 0.19	-2.18 ± 0.21
CCCAAGCAAUAUUACGUGGA	-0.971 ± 0.052	-0.376 ± 0.061
CCCAAGCAAUAUUACGUGUA	-2.85 ± 0.096	-2.3 ± 0.11
CCCAAGCAAUAUUACGUUCC	-3.87 ± 0.37	-2.3 ± 0.37
CCCCAGCAAUAUUACGACAG	-3.96 ± 0.12	-2.92 ± 0.14
CCCCAGCAAUAUUACGACAU	-3.936 ± 0.02	-2.94 ± 0.037
CCCCAGCAAUAUUACGACCC	-0.862 ± 0.32	
